± gives the uncertainty stated by the source.
Assay: self-splicing fitness, log relative to wild type (ln ratio); higher = more splicing; Tetrahymena group I intron in knt gene, E. coli kanamycin selection, DiMSum; sequences stand for … in CUCUCU…GGAGGGAAAAGUUAUCAGGCAUGCACCUGGUAGCUAGUCUUUAAACCAAUAGAUUGCAUCGGUUUAAAAGGCAAGACCGUCAAAUUGCGGGAAAGGGGUCAACAGCCGUUCAGUACCAAGUCUCAGGGGAAACUUUGAGAUGGCCUUGCAAAGGGUAUGGUAAUAAGCUGACGGACAUGGUCCUAACCACGCAGCCAAGUCCUAAGUCAACAGAUCUUCUGUUGAUAUGGAUGCAGUUCACAGACUAAAUGUCGGUCGGGGAAGAUGUAUUCUUCUCAUAAGAUAUAGUCGGACCUCUCCUUAAUGGGAGCUAGCGGAUGAAGUGAUGCAACACUGGAGCCGCUGGGAACUAAUUUGUAUGCGAAAGUAUAUUGAUUAGUUUUGGAGUACUCGUGGUCG
Procedure, shortened: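 Colonies from six replicate transformations of E. coli BL21(DE3) were pooled and amplicon-sequenced on an Illumina HiSeq 2500. The library placed an intron with all eight P1ex-region nucleotides randomised inside the knt kanamycin-resistance gene on pET-22b(+), and cells grew overnight at 37°C or 30°C on LB agar with or without 25 μg/mL kanamycin (plus 100 μg/mL carbenicillin, 50 μM IPTG, 0.2% rhamnose). Fitness is the DiMSum error-weighted combination of wild-type-normalised replicate fold changes, kanamycin versus none.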

Row | Sequence | self-splicing fitness (ln) (30 °C) | self-splicing fitness (ln) (37 °C)
1 | GGCCAGCAAUAUUACGCCUU | -2.04 ± 0.12 | -0.815 ± 0.097
2 | GCUAAGCAAUAUUACGUAAA | -0.877 ± 0.068 | -0.32 ± 0.091
3 | AAUCAGCAAUAUUACGAGAC | -3.64 ± 0.27 | -0.528 ± 0.12
4 | GCGGAGCAAUAUUACGUAAC | -1.54 ± 0.34 | 
5 | UAUAAGCAAUAUUACGUAGC |  | -2.05 ± 0.36
6 | CACAAGCAAUAUUACGGAUC | -4.63 ± 0.39 | -2.09 ± 0.13
7 | UCGUAGCAAUAUUACGUGAU | -2.2 ± 0.2 | -1.48 ± 0.46
8 | CUCUAGCAAUAUUACGGAUG | -1.32 ± 0.092 | -0.418 ± 0.13
9 | AGAUAGCAAUAUUACGGUUU | -0.692 ± 0.055 | -0.341 ± 0.076
10 | UGCCAGCAAUAUUACGAUGA | -1.99 ± 0.14 | -0.997 ± 0.12
11 | GCGAAGCAAUAUUACGUGCG | -2.31 ± 0.16 | -1.5 ± 0.18
12 | UUGCAGCAAUAUUACGUCGG | -0.191 ± 0.089 | -0.117 ± 0.11
13 | UGGAAGCAAUAUUACGAUGA | -0.768 ± 0.18 | -0.0449 ± 0.17
14 | CGGCAGCAAUAUUACGAUCC | -2 ± 0.13 | -1.03 ± 0.21
15 | UUAAAGCAAUAUUACGGGGU |  | -2.21 ± 0.3
16 | ACACAGCAAUAUUACGUGUC | -3.6 ± 0.12 | -3.69 ± 0.2
17 | UCACAGCAAUAUUACGGAUG | -2.4 ± 0.12 | -1.89 ± 0.13
18 | CCUUAGCAAUAUUACGACAU | -3.677 ± 0.028 | -2.85 ± 0.043
19 | GUUAAGCAAUAUUACGGCCU | -0.808 ± 0.29 | 0.635 ± 0.44
20 | GUGAAGCAAUAUUACGUAUA | -1.53 ± 0.077 | -0.347 ± 0.1
21 | UACUAGCAAUAUUACGGAGU | -3.43 ± 0.24 | -3.25 ± 0.29
22 | GGGUAGCAAUAUUACGAGGA | -2.14 ± 0.22 | -2.74 ± 0.3
23 | UUUCAGCAAUAUUACGAUUC |  | -1.37 ± 0.41
24 | ACCUAGCAAUAUUACGACUG | -2.84 ± 0.15 | -1.46 ± 0.18
25 | CACCAGCAAUAUUACGCGGU | -3.67 ± 0.12 | -3.31 ± 0.15
26 | GUACAGCAAUAUUACGAACA | -1.51 ± 0.11 | -0.736 ± 0.11

Row | Sequence | self-splicing fitness (ln) (30 °C) | self-splicing fitness (ln) (37 °C)
27 | AGAGAGCAAUAUUACGAGGU | -2.98 ± 0.2 | -1.87 ± 0.32
28 | GUGGAGCAAUAUUACGCAGU | -2.88 ± 0.18 | -2.58 ± 0.31
29 | AGCGAGCAAUAUUACGAACC | -2.18 ± 0.14 | -0.856 ± 0.15
30 | UCUCAGCAAUAUUACGGGGC | -3.03 ± 0.23 | -3.85 ± 0.37
31 | AAAUAGCAAUAUUACGUGCC | -1.46 ± 0.084 | -0.919 ± 0.09
32 | GUAUAGCAAUAUUACGCACG | -1.99 ± 0.19 | -0.994 ± 0.3
33 | UACGAGCAAUAUUACGUAGG | -3.41 ± 0.31 | -2.57 ± 0.28
34 | UGCAAGCAAUAUUACGAACC | -1.15 ± 0.15 | -0.525 ± 0.17
35 | CCAAAGCAAUAUUACGGAAU | -4.11 ± 0.39 | -2.95 ± 0.22
36 | CUACAGCAAUAUUACGCGAU | -2.35 ± 0.095 | -0.252 ± 0.092
37 | ACUAAGCAAUAUUACGGUAC | -2.7 ± 0.27 | -1.89 ± 0.19
38 | UAUUAGCAAUAUUACGAUCU | -0.883 ± 0.12 | 0.167 ± 0.17
39 | ACCUAGCAAUAUUACGGUAA | -2.62 ± 0.13 | -1.89 ± 0.13
40 | GCCAAGCAAUAUUACGGGGC | -3.69 ± 0.22 | -2.85 ± 0.27
41 | UCGCAGCAAUAUUACGGUGA | -4.44 ± 0.46 | -2.45 ± 0.15
42 | CAUUAGCAAUAUUACGGAGA | -3.12 ± 0.41 | -2.39 ± 0.3
43 | GGCAAGCAAUAUUACGUGAU | -0.97 ± 0.078 | -0.169 ± 0.092
44 | GCUAAGCAAUAUUACGAUGG | -0.808 ± 0.072 | -0.4 ± 0.098
45 | CUCAAGCAAUAUUACGGUUG | -3.38 ± 0.19 | -2.56 ± 0.22
46 | AGGCAGCAAUAUUACGCGUU | -2.29 ± 0.12 | -0.692 ± 0.11
47 | GAAUAGCAAUAUUACGUCUG | -1.85 ± 0.075 | -0.674 ± 0.082
48 | GGGUAGCAAUAUUACGCUCU | -3.13 ± 0.34 | 
49 | ACCGAGCAAUAUUACGUAUU | -3.21 ± 0.16 | -1.98 ± 0.17
50 | AAAAAGCAAUAUUACGGGCG | -0.625 ± 0.075 | -0.721 ± 0.091
51 | CGUGAGCAAUAUUACGGAAG | -1.17 ± 0.1 | -1.01 ± 0.13
52 | UAGAAGCAAUAUUACGACUG | -0.418 ± 0.083 | -0.0265 ± 0.1

Row | Sequence | self-splicing fitness (ln) (30 °C) | self-splicing fitness (ln) (37 °C)
53 | CAGUAGCAAUAUUACGUUUC | -3.64 ± 0.3 | -2.69 ± 0.3
54 | GCACAGCAAUAUUACGGUAC | -1.17 ± 0.096 | -0.285 ± 0.1
55 | GCAGAGCAAUAUUACGGAAA |  | -2.15 ± 0.43
56 | CUUCAGCAAUAUUACGUUCU | -4.03 ± 0.33 | -2.26 ± 0.2
57 | UCAGAGCAAUAUUACGCUUA | -2.91 ± 0.24 | -2.48 ± 0.18
58 | CUUAAGCAAUAUUACGAUUA | -3.71 ± 0.26 | -2.72 ± 0.21
59 | CGGAAGCAAUAUUACGCAUU | -3.52 ± 0.3 | -2.98 ± 0.29
60 | GUUUAGCAAUAUUACGUGCU | -2.18 ± 0.16 | -1.31 ± 0.17
61 | GCAUAGCAAUAUUACGGUGU | -4.14 ± 0.23 | -2.47 ± 0.2
62 | CUCUAGCAAUAUUACGCAAG | -3.98 ± 0.27 | -1.95 ± 0.2
63 | AACGAGCAAUAUUACGCCAA | -2.5 ± 0.19 | -3.1 ± 0.22
64 | CAUUAGCAAUAUUACGAGCC | -2.89 ± 0.23 | -2.08 ± 0.27
65 | UGGCAGCAAUAUUACGCGGA | -1.48 ± 0.098 | -0.878 ± 0.095
66 | GGGUAGCAAUAUUACGCUUG | -0.33 ± 0.1 | -0.241 ± 0.15
67 | GCAUAGCAAUAUUACGCAAU | -2.37 ± 0.11 | -1.77 ± 0.12
68 | UUUAAGCAAUAUUACGUAAA | -0.434 ± 0.1 | 0.519 ± 0.16
69 | UAAAAGCAAUAUUACGGAAG | -2.03 ± 0.15 | -0.624 ± 0.15
70 | CGCAAGCAAUAUUACGUUAC | -4 ± 0.22 | -3.23 ± 0.27
71 | CCCAAGCAAUAUUACGCCUU | -3.04 ± 0.16 | -2.88 ± 0.21
72 | GUGGAGCAAUAUUACGCGUA | -2.14 ± 0.36 | -0.34 ± 0.25
73 | GAGAAGCAAUAUUACGGAUU | -2.77 ± 0.11 | -1.63 ± 0.11
74 | GCAUAGCAAUAUUACGCCGA |  | -2.37 ± 0.25
75 | CGACAGCAAUAUUACGAGAG | -3.42 ± 0.12 | -1.95 ± 0.11
76 | CCUAAGCAAUAUUACGCUUA | -3.09 ± 0.18 | -1.97 ± 0.29
77 | UAAUAGCAAUAUUACGUCGC | -3.86 ± 0.43 | -1.71 ± 0.35

Source: the supplement of paper PMC7877785
